Experimental data as given in paper PMC9528872 (Nature Communications, 2022).

B1: Ab 2-7 scFv (scFv, V domains shown)
VH: QVTLKESGPTRVKPTQTLTLTCTFSGFSLSTTGVGVGWIRQPPGKALEWLALIYWNDDKRYSPSLKSRLTITKDTSKNQVVLTMTNMDPVDTATYYCARISGSGYFYPFDIWGQGTTVTVSS
VL: NFMLTQPHSVSESPGKTVTISCTRSSGSIASNYVQWYQQRPGSSPTTVIYEDNQRPSGVPDRFSGSIDSSSNSASLTISGLKAEDEADYYCQSYDSSSLWVFGGGTKLTVL
B2: Ab 2-7 scFv-Fc (Fc fusion)
VH: B1 VH
VL: B1 VL

Tests used:
[1] = molecular target: SARS-CoV-2 receptor binding domain (RBD), biotinylated (SARS-CoV-2, Wuhan-type, UniProt P0DTC2, biotin (BirA, on the Avi tag)); experiment: BLI; details: both partners purified
[2] = molecular target: T1, Tor2 SARS-CoV spike (Toronto, 2003) (SARS-CoV, strain Tor2); experiment: ELISA; antibody at 2 ug/ml against Tor2 SARS-CoV spike
T1 construct: also called Tor2 spike protein

Row | Binder | Kd [1] | koff [1] | kon [1] | binding result [2]
1 | B1 | 0.107 nM | 4.81e-05 s⁻¹ | 452000 M⁻¹ s⁻¹ | –
2 | B2 | – | – | – | binds
